Key:
CtIP ΔN541a = CtIP ΔN541a (human, UniProt Q99708 542-897); test: fluorescence anisotropy; Anisotropy: 20 mM Tris-Cl pH 8.0, 20 mM NaCl, 1 mM DTT, 5 nM HEX fork; EMSA: 20 mM Tris-Cl pH 8.0, 100 mM NaCl, 1 mM DTT, 0.1 mg/ml BSA, 5% glycerol, 2.5 nM Cy5 fork, room temperature; C-Trap reaction: 10 mM Tris-Cl pH 7.6, 20 mM NaCl, 1 mM DTT, 0.1 mg/ml BSA; conditions: protein: recombinant; tags: StrepII; chain copies: 2; label: 5'-HEX on strand 1; fork: 25 bp duplex, 20 nt 3' and 5' dT arms
CtIP R100W = CtIP R100W (human, UniProt Q99708 1-897, R100W); test: as above; conditions: protein: recombinant; tags: StrepII; chain copies: 4; label: 5'-HEX on strand 1; fork: 25 bp duplex, 20 nt 3' and 5' dT arms
CtIP ΔN500a = CtIP ΔN500a (human, UniProt Q99708 501-897); test: as above; conditions: protein: recombinant; tags: StrepII; chain copies: 2; label: 5'-HEX on strand 1; fork: 25 bp duplex, 20 nt 3' and 5' dT arms
CtIP WT [1] = target: T1, CtIP WT (human, UniProt Q99708 1-897); test: as above; conditions: protein: recombinant; tags: StrepII (cleavable); chain copies: 4; label: 5'-HEX on strand 1; fork: 25 bp duplex, 20 nt 3' and 5' dT arms
CtIP ΔN500b = CtIP ΔN500b (human, UniProt Q99708 501-897); test: as above; conditions: protein: recombinant; tags: StrepII; label: 5'-HEX on strand 1; fork: 25 bp duplex, 20 nt 3' and 5' dT arms
CtIP ΔN541b = CtIP ΔN541b (human, UniProt Q99708 542-897); test: as above; conditions: protein: recombinant; tags: StrepII; label: 5'-HEX on strand 1; fork: 25 bp duplex, 20 nt 3' and 5' dT arms
CtIP ΔC608 [2] = target: T2, CtIP ΔC608 (human, UniProt Q99708 1-608); test: fluorescence anisotropy; no binding at 400 nM; Anisotropy: 20 mM Tris-Cl pH 8.0, 20 mM NaCl, 1 mM DTT, 5 nM HEX fork; EMSA: 20 mM Tris-Cl pH 8.0, 100 mM NaCl, 1 mM DTT, 0.1 mg/ml BSA, 5% glycerol, 2.5 nM Cy5 fork, room temperature; C-Trap reaction: 10 mM Tris-Cl pH 7.6, 20 mM NaCl, 1 mM DTT, 0.1 mg/ml BSA; conditions: protein: recombinant; tags: StrepII; chain copies: 4; label: 5'-HEX on strand 1; fork: 25 bp duplex, 20 nt 3' and 5' dT arms
MBP-CtIP-800-843 = MBP-CtIP-800-843 (human, UniProt Q99708 800-843); test: fluorescence-based binding assay; label not certain; weak binding equation; Anisotropy: 20 mM Tris-Cl pH 8.0, 20 mM NaCl, 1 mM DTT, 5 nM HEX fork; EMSA: 20 mM Tris-Cl pH 8.0, 100 mM NaCl, 1 mM DTT, 0.1 mg/ml BSA, 5% glycerol, 2.5 nM Cy5 fork, room temperature; C-Trap reaction: 10 mM Tris-Cl pH 7.6, 20 mM NaCl, 1 mM DTT, 0.1 mg/ml BSA; conditions: protein: recombinant; tags: MBP; label: 5'-HEX on strand 1; fork: 25 bp duplex, 20 nt 3' and 5' dT arms
CtIP WT [3] = target: T1, CtIP WT; test: fluorescence anisotropy; independent repeat; Anisotropy: 20 mM Tris-Cl pH 8.0, 20 mM NaCl, 1 mM DTT, 5 nM HEX fork; EMSA: 20 mM Tris-Cl pH 8.0, 100 mM NaCl, 1 mM DTT, 0.1 mg/ml BSA, 5% glycerol, 2.5 nM Cy5 fork, room temperature; C-Trap reaction: 10 mM Tris-Cl pH 7.6, 20 mM NaCl, 1 mM DTT, 0.1 mg/ml BSA; conditions: protein: recombinant; tags: StrepII (cleavable); chain copies: 4; label: 5'-HEX on strand 1; fork: 25 bp duplex, 20 nt 3' and 5' dT arms
CtIP ΔN790 = CtIP ΔN790 (human, UniProt Q99708 791-897); test: fluorescence quenching; Results say Cy5-fork; Methods imply HEX (550 nm); Anisotropy: 20 mM Tris-Cl pH 8.0, 20 mM NaCl, 1 mM DTT, 5 nM HEX fork; EMSA: 20 mM Tris-Cl pH 8.0, 100 mM NaCl, 1 mM DTT, 0.1 mg/ml BSA, 5% glycerol, 2.5 nM Cy5 fork, room temperature; C-Trap reaction: 10 mM Tris-Cl pH 7.6, 20 mM NaCl, 1 mM DTT, 0.1 mg/ml BSA; conditions: protein: recombinant; tags: StrepII; label: 5'-Cy5 on strand 1; fork: 25 bp duplex, 20 nt 3' and 5' dT arms
CtIP ΔC608 [4] = target: T2, CtIP ΔC608; test: EMSA; undetectable at highest concentration; Anisotropy: 20 mM Tris-Cl pH 8.0, 20 mM NaCl, 1 mM DTT, 5 nM HEX fork; EMSA: 20 mM Tris-Cl pH 8.0, 100 mM NaCl, 1 mM DTT, 0.1 mg/ml BSA, 5% glycerol, 2.5 nM Cy5 fork, room temperature; C-Trap reaction: 10 mM Tris-Cl pH 7.6, 20 mM NaCl, 1 mM DTT, 0.1 mg/ml BSA; conditions: protein: recombinant; tags: StrepII; chain copies: 4; label: 5'-Cy5 on strand 1; fork: 25 bp duplex, 20 nt 3' and 5' dT arms

T1 sequence (Q99708 whole entry): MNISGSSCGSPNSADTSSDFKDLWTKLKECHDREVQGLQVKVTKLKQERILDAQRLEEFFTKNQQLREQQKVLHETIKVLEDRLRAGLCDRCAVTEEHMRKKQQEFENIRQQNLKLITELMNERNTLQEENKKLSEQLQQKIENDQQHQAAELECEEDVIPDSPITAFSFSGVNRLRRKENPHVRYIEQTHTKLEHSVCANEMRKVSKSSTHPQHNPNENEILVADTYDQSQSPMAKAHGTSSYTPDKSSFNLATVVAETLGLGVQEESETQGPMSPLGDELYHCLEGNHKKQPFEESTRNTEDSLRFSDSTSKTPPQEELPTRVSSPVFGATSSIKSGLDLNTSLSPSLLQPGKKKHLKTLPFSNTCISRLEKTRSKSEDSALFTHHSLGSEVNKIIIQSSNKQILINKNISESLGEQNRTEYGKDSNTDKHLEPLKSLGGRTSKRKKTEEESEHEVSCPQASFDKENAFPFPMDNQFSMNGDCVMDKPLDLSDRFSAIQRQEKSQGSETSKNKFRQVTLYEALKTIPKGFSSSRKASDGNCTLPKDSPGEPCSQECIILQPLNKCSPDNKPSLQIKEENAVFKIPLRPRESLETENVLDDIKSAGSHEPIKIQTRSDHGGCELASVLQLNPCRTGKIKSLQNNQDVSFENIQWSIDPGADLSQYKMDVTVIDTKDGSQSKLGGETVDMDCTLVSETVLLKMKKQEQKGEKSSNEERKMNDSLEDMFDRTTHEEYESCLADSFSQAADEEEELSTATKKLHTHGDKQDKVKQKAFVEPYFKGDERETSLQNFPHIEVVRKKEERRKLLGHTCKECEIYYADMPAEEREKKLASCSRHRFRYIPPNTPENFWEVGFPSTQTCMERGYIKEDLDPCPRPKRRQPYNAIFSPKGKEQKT
T2 sequence (Q99708 1-608, stated change not applied): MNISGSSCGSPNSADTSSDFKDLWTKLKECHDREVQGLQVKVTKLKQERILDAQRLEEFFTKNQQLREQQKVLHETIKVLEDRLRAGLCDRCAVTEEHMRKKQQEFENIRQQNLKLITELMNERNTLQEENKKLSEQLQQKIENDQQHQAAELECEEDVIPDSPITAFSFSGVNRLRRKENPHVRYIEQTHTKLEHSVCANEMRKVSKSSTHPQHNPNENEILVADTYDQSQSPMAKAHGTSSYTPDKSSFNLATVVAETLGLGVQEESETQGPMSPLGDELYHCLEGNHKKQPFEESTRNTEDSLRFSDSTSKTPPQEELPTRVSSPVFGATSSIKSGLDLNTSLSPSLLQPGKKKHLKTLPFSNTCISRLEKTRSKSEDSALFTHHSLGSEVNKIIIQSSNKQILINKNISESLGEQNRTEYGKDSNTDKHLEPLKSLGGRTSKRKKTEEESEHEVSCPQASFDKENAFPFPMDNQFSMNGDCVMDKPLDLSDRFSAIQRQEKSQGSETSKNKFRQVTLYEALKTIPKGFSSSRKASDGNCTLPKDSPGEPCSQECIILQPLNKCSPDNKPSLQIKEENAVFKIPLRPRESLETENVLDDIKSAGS
Chain of MBP-CtIP-800-843 (Q99708 800-843): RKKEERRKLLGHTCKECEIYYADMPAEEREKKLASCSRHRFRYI
Chain of CtIP ΔN790 (Q99708 791-897, stated change not applied): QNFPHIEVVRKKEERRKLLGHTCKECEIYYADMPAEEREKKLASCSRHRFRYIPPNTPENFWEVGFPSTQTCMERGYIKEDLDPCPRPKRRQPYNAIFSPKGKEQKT
Chain of CtIP ΔN541a (Q99708 542-897, stated change not applied): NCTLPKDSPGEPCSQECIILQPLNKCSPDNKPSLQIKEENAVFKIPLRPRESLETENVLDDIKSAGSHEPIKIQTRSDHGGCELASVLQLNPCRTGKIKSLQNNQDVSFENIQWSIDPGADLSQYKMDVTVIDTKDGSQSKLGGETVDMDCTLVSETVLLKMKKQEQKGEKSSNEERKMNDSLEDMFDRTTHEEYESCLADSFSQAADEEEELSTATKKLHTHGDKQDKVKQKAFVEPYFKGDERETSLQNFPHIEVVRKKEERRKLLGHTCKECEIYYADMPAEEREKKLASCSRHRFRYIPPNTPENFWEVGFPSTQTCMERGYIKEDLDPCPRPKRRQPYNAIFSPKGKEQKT
Chain of CtIP ΔN541b (Q99708 542-897, stated change not applied): as above
Chain of CtIP R100W (Q99708 whole entry R100W): as the sequence (Q99708 whole entry) above, with R100W counted along it
Chain of CtIP ΔN500a (Q99708 501-897, stated change not applied): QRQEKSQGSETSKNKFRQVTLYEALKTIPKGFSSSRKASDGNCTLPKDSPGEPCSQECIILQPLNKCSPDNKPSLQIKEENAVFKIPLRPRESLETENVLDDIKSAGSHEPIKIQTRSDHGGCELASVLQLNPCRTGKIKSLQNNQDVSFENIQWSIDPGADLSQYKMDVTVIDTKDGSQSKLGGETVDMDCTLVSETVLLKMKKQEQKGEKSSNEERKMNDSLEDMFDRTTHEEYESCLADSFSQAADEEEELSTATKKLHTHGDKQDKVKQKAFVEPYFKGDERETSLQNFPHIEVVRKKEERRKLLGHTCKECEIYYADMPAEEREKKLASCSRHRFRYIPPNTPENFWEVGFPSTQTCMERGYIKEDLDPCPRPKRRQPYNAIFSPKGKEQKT
Chain of CtIP ΔN500b (Q99708 501-897, stated change not applied): as above

B1: HEX fork (mixed)
DNA 1: GCTTGCTAGGACGGATCGCTCGAGGTTTTTTTTTTTTTTTTTTTT
DNA 2: TTTTTTTTTTTTTTTTTTTTCCTCGAGCGATCCGTCCTAGCAAGC
Question: With B1 as the binder, how does the Kd (CtIP ΔN541a) read?
Answer: The Kd was 210 nM.

Question: And the Kd (CtIP R100W)?
Answer: Its Kd is 115 nM.

Question: And the Kd (CtIP ΔN500a)?
Answer: The Kd was 45 nM.

Question: And the Kd (CtIP WT [1])?
Answer: The Kd was 66 nM.

Question: What about the Kd (CtIP ΔN500b) of the same binder?
Answer: Its Kd is 33 nM.

Question: What about the Kd (CtIP ΔN541b) of the same binder?
Answer: The Kd was 960 nM.

Question: Does B1 bind (CtIP ΔC608 [2])?
Answer: Result: no binding

Question: And the Kd (MBP-CtIP-800-843)?
Answer: The Kd was 520 nM.

Question: What about the Kd (CtIP WT [3]) of the same binder?
Answer: Its Kd is 37 nM.

B2: Cy5 fork (mixed)
DNA 1: GCTTGCTAGGACGGATCGCTCGAGGTTTTTTTTTTTTTTTTTTTT
DNA 2: TTTTTTTTTTTTTTTTTTTTCCTCGAGCGATCCGTCCTAGCAAGC
Question: With B2 as the binder, how does the Kd (CtIP ΔN790) read?
Answer: The Kd was 270 nM.

Question: Does B2 bind (CtIP ΔC608 [4])?
Answer: Result: no binding
